In paper PMC314469, “Protein Interaction Networks by Proteome Peptide Scanning” (PLoS Biology, 2004):
Values belong to the binder of their own block, whether it stands above or below them.

Legend:
Assay in all cases: SPOT array
[1] = biological target: T1, Yfr024 SH3 (LSB3_YEAST), P43603
T1 chain: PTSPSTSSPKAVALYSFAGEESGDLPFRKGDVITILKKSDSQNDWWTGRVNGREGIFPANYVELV

[2] = biological target: Sho1 SH3 (SHO1_YEAST), P40073
[3] = biological target: T2, Myo5 SH3 (MYO5_YEAST), Q04439
T2 chain: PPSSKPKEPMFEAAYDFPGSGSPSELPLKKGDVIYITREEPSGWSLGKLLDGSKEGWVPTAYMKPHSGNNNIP

[4] = biological target: T3, Rvs167 SH3 (RV167_YEAST), P39743
T3 chain: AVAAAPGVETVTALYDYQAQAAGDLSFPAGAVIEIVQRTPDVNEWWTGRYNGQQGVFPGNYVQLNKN

[5] = biological target: T4, Yhr016c SH3 (YSC84_YEAST), P32793
T4 chain: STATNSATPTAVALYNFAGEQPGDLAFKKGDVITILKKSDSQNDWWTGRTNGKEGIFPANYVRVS

[6] = biological target: T5, Boi1 SH3 (BOI1_YEAST), P38041
T5 chain: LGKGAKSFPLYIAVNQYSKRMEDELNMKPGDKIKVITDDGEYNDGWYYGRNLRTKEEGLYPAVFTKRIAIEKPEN

[7] = biological target: T6, Boi2 SH3 (BOI2_YEAST), P39969
T6 chain: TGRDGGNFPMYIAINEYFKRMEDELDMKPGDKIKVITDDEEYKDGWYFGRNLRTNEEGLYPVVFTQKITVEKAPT

Chain of Sho1 SH3 (SHO1_YEAST), P40073 (P40073 295-366): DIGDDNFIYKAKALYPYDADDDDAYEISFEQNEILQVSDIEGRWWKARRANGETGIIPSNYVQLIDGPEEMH

B1: YNL231C 5-18 (peptide)
chain: FSKKKEAPEDPKNL
normalised SPOT signal, Boehringer light units (BLU); mean over the file's lines of this peptide [1]: 13.4
normalised SPOT signal, Boehringer light units (BLU); mean over the file's lines of this peptide [2]: 42.3
normalised SPOT signal, Boehringer light units (BLU); mean over the file's lines of this peptide [3]: 148
normalised SPOT signal, Boehringer light units (BLU); mean over the file's lines of this peptide [4]: 66.9
normalised SPOT signal, Boehringer light units (BLU); mean over the file's lines of this peptide [5]: 21.7
normalised SPOT signal, Boehringer light units (BLU); mean over the file's lines of this peptide [6]: 56.7
normalised SPOT signal, Boehringer light units (BLU); mean over the file's lines of this peptide [7]: 18.3

B2: YGL195W 1152-1165 (peptide)
chain: FYKEKAKPLEPILD
normalised SPOT signal, Boehringer light units (BLU); mean over the file's lines of this peptide [1]: 0
normalised SPOT signal, Boehringer light units (BLU); mean over the file's lines of this peptide [2]: 62.7
normalised SPOT signal, Boehringer light units (BLU); mean over the file's lines of this peptide [3]: 87.7
normalised SPOT signal, Boehringer light units (BLU); mean over the file's lines of this peptide [4]: 25.4
normalised SPOT signal, Boehringer light units (BLU); mean over the file's lines of this peptide [5]: 57
normalised SPOT signal, Boehringer light units (BLU); mean over the file's lines of this peptide [6]: 80.5
normalised SPOT signal, Boehringer light units (BLU); mean over the file's lines of this peptide [7]: 27.8

B5: YPR095C 191-204 (peptide)
chain: FNGDRLVPTLPTVS
normalised SPOT signal, Boehringer light units (BLU); mean over the file's lines of this peptide [1]: 2210
normalised SPOT signal, Boehringer light units (BLU); mean over the file's lines of this peptide [2]: 40
normalised SPOT signal, Boehringer light units (BLU); mean over the file's lines of this peptide [3]: 161
normalised SPOT signal, Boehringer light units (BLU); mean over the file's lines of this peptide [4]: 2290
normalised SPOT signal, Boehringer light units (BLU); mean over the file's lines of this peptide [5]: 750
normalised SPOT signal, Boehringer light units (BLU); mean over the file's lines of this peptide [6]: 132
normalised SPOT signal, Boehringer light units (BLU); mean over the file's lines of this peptide [7]: 190

B6: YJR122W 473-486 (peptide)
chain: GENIKITPQKPFWF
normalised SPOT signal, Boehringer light units (BLU); mean over the file's lines of this peptide [1]: 29.7
normalised SPOT signal, Boehringer light units (BLU); mean over the file's lines of this peptide [2]: 46
normalised SPOT signal, Boehringer light units (BLU); mean over the file's lines of this peptide [3]: 115
normalised SPOT signal, Boehringer light units (BLU); mean over the file's lines of this peptide [4]: 74.1
normalised SPOT signal, Boehringer light units (BLU); mean over the file's lines of this peptide [5]: 33
normalised SPOT signal, Boehringer light units (BLU); mean over the file's lines of this peptide [6]: 82.4
normalised SPOT signal, Boehringer light units (BLU); mean over the file's lines of this peptide [7]: 35.5

B10: YOL113W 305-318 (peptide)
chain: FRPHRLAPSAPATK
normalised SPOT signal, Boehringer light units (BLU); mean over the file's lines of this peptide [1]: 1010
normalised SPOT signal, Boehringer light units (BLU); mean over the file's lines of this peptide [2]: 44.7
normalised SPOT signal, Boehringer light units (BLU); mean over the file's lines of this peptide [3]: 1410
normalised SPOT signal, Boehringer light units (BLU); mean over the file's lines of this peptide [4]: 228
normalised SPOT signal, Boehringer light units (BLU); mean over the file's lines of this peptide [5]: 109
normalised SPOT signal, Boehringer light units (BLU); mean over the file's lines of this peptide [6]: 9160
normalised SPOT signal, Boehringer light units (BLU); mean over the file's lines of this peptide [7]: 26

B11: YER114C 436-449 (peptide)
chain: FVSPRRAPKPPSYP
normalised SPOT signal, Boehringer light units (BLU); mean over the file's lines of this peptide [1]: 826
normalised SPOT signal, Boehringer light units (BLU); mean over the file's lines of this peptide [2]: 96.2
normalised SPOT signal, Boehringer light units (BLU); mean over the file's lines of this peptide [3]: 1580
normalised SPOT signal, Boehringer light units (BLU); mean over the file's lines of this peptide [4]: 42.1
normalised SPOT signal, Boehringer light units (BLU); mean over the file's lines of this peptide [5]: 70.9
normalised SPOT signal, Boehringer light units (BLU); mean over the file's lines of this peptide [6]: 4960
normalised SPOT signal, Boehringer light units (BLU); mean over the file's lines of this peptide [7]: 13.1

B13: YPR117W 1311-1324 (peptide)
chain: GDEERFLPNRPHYE
normalised SPOT signal, Boehringer light units (BLU); mean over the file's lines of this peptide [1]: 1300
normalised SPOT signal, Boehringer light units (BLU); mean over the file's lines of this peptide [2]: 37.9
normalised SPOT signal, Boehringer light units (BLU); mean over the file's lines of this peptide [3]: 126
normalised SPOT signal, Boehringer light units (BLU); mean over the file's lines of this peptide [4]: 10.7
normalised SPOT signal, Boehringer light units (BLU); mean over the file's lines of this peptide [5]: 653
normalised SPOT signal, Boehringer light units (BLU); mean over the file's lines of this peptide [6]: 54.3
normalised SPOT signal, Boehringer light units (BLU); mean over the file's lines of this peptide [7]: 34.4

B14: YNL298W 451-464 (peptide)
chain: FQPQRTAPKPPISA
normalised SPOT signal, Boehringer light units (BLU); mean over the file's lines of this peptide [1]: 379
normalised SPOT signal, Boehringer light units (BLU); mean over the file's lines of this peptide [2]: 39.8
normalised SPOT signal, Boehringer light units (BLU); mean over the file's lines of this peptide [3]: 88300
normalised SPOT signal, Boehringer light units (BLU); mean over the file's lines of this peptide [4]: 148
normalised SPOT signal, Boehringer light units (BLU); mean over the file's lines of this peptide [5]: 21.1
normalised SPOT signal, Boehringer light units (BLU); mean over the file's lines of this peptide [6]: 4820
normalised SPOT signal, Boehringer light units (BLU); mean over the file's lines of this peptide [7]: 19.6

B15: YLR169W 87-100 (peptide)
chain: FQDYRSSPWSPSRS
normalised SPOT signal, Boehringer light units (BLU); mean over the file's lines of this peptide [1]: 548
normalised SPOT signal, Boehringer light units (BLU); mean over the file's lines of this peptide [2]: 953
normalised SPOT signal, Boehringer light units (BLU); mean over the file's lines of this peptide [3]: 264
normalised SPOT signal, Boehringer light units (BLU); mean over the file's lines of this peptide [4]: 575
normalised SPOT signal, Boehringer light units (BLU); mean over the file's lines of this peptide [5]: 221
normalised SPOT signal, Boehringer light units (BLU); mean over the file's lines of this peptide [6]: 33700
normalised SPOT signal, Boehringer light units (BLU); mean over the file's lines of this peptide [7]: 314

The remaining lines, values ahead:

normalised SPOT signal, Boehringer light units (BLU); mean over the file's lines of this peptide [1]: 3030
normalised SPOT signal, Boehringer light units (BLU); mean over the file's lines of this peptide [2]: 30200
normalised SPOT signal, Boehringer light units (BLU); mean over the file's lines of this peptide [3]: 337
normalised SPOT signal, Boehringer light units (BLU); mean over the file's lines of this peptide [4]: 263
normalised SPOT signal, Boehringer light units (BLU); mean over the file's lines of this peptide [5]: 496
normalised SPOT signal, Boehringer light units (BLU); mean over the file's lines of this peptide [6]: 4350
normalised SPOT signal, Boehringer light units (BLU); mean over the file's lines of this peptide [7]: 74.9
B3: YPR151C 52-65 (peptide)
chain: FYDFRSLPKVPTTQ

normalised SPOT signal, Boehringer light units (BLU); mean over the file's lines of this peptide [1]: 448
normalised SPOT signal, Boehringer light units (BLU); mean over the file's lines of this peptide [2]: 35800
normalised SPOT signal, Boehringer light units (BLU); mean over the file's lines of this peptide [3]: 860
normalised SPOT signal, Boehringer light units (BLU); mean over the file's lines of this peptide [4]: 179
normalised SPOT signal, Boehringer light units (BLU); mean over the file's lines of this peptide [5]: 80.2
normalised SPOT signal, Boehringer light units (BLU); mean over the file's lines of this peptide [6]: 129
normalised SPOT signal, Boehringer light units (BLU); mean over the file's lines of this peptide [7]: 8.6
B4: YML104C 41-54 (peptide)
chain: FVFFKSLPDLPKPQ

normalised SPOT signal, Boehringer light units (BLU); mean over the file's lines of this peptide [1]: 0
normalised SPOT signal, Boehringer light units (BLU); mean over the file's lines of this peptide [2]: 28.1
normalised SPOT signal, Boehringer light units (BLU); mean over the file's lines of this peptide [3]: 40100
normalised SPOT signal, Boehringer light units (BLU); mean over the file's lines of this peptide [4]: 54.8
normalised SPOT signal, Boehringer light units (BLU); mean over the file's lines of this peptide [5]: 3.6
normalised SPOT signal, Boehringer light units (BLU); mean over the file's lines of this peptide [6]: 30.8
normalised SPOT signal, Boehringer light units (BLU); mean over the file's lines of this peptide [7]: 1.7
B7: YOR389W 154-167 (peptide)
chain: GDHPKGPPPPPPPD

normalised SPOT signal, Boehringer light units (BLU); mean over the file's lines of this peptide [1]: 208
normalised SPOT signal, Boehringer light units (BLU); mean over the file's lines of this peptide [2]: 60.2
normalised SPOT signal, Boehringer light units (BLU); mean over the file's lines of this peptide [3]: 408
normalised SPOT signal, Boehringer light units (BLU); mean over the file's lines of this peptide [4]: 73.6
normalised SPOT signal, Boehringer light units (BLU); mean over the file's lines of this peptide [5]: 44.4
normalised SPOT signal, Boehringer light units (BLU); mean over the file's lines of this peptide [6]: 152
normalised SPOT signal, Boehringer light units (BLU); mean over the file's lines of this peptide [7]: 23.6
B8: YBR214W 193-206 (peptide)
chain: GEMVKLTPKNPFYK

normalised SPOT signal, Boehringer light units (BLU); mean over the file's lines of this peptide [1]: 11.5
normalised SPOT signal, Boehringer light units (BLU); mean over the file's lines of this peptide [2]: 6.3
normalised SPOT signal, Boehringer light units (BLU); mean over the file's lines of this peptide [3]: 20200
normalised SPOT signal, Boehringer light units (BLU); mean over the file's lines of this peptide [4]: 10.9
normalised SPOT signal, Boehringer light units (BLU); mean over the file's lines of this peptide [5]: 23.3
normalised SPOT signal, Boehringer light units (BLU); mean over the file's lines of this peptide [6]: 70
normalised SPOT signal, Boehringer light units (BLU); mean over the file's lines of this peptide [7]: 0.3
B9: YPL277C 154-167 (peptide)
chain: GDHPKGPPPPPPPP

normalised SPOT signal, Boehringer light units (BLU); mean over the file's lines of this peptide [1]: 190
normalised SPOT signal, Boehringer light units (BLU); mean over the file's lines of this peptide [2]: 66.9
normalised SPOT signal, Boehringer light units (BLU); mean over the file's lines of this peptide [3]: 235
normalised SPOT signal, Boehringer light units (BLU); mean over the file's lines of this peptide [4]: 22.3
normalised SPOT signal, Boehringer light units (BLU); mean over the file's lines of this peptide [5]: 42.6
normalised SPOT signal, Boehringer light units (BLU); mean over the file's lines of this peptide [6]: 59.6
normalised SPOT signal, Boehringer light units (BLU); mean over the file's lines of this peptide [7]: 14.9
B12: YGL009C 253-266 (peptide)
chain: FQYTKGRPLAPKGA

normalised SPOT signal, Boehringer light units (BLU); mean over the file's lines of this peptide [1]: 864
normalised SPOT signal, Boehringer light units (BLU); mean over the file's lines of this peptide [2]: 182
normalised SPOT signal, Boehringer light units (BLU); mean over the file's lines of this peptide [3]: 378
normalised SPOT signal, Boehringer light units (BLU); mean over the file's lines of this peptide [4]: 228
normalised SPOT signal, Boehringer light units (BLU); mean over the file's lines of this peptide [5]: 66.2
normalised SPOT signal, Boehringer light units (BLU); mean over the file's lines of this peptide [6]: 267
normalised SPOT signal, Boehringer light units (BLU); mean over the file's lines of this peptide [7]: 30.8
B16: YMR259C 335-348 (peptide)
chain: FSTKKSKPIRPFVF
